B1: ADP-ribosylation factor 1 (Saccharomyces cerevisiae), P11076 (parent)
chain: MGLFASKLFSNLFGNKEMRILMVGLDGAGKTTVLYKLKLGEVITTIPTIGFNVETVQYKNISFTVWDVGGQDRIRSLWRHYYRNTEGVIFVVDSNDRSRIGEAREVMQRMLNEDELRNAAWLVFANKQDLPEAMSAAEITEKLGLHSIRNRPWFIQATCATSGEGLYEGLEWLSNSLKNST
partner: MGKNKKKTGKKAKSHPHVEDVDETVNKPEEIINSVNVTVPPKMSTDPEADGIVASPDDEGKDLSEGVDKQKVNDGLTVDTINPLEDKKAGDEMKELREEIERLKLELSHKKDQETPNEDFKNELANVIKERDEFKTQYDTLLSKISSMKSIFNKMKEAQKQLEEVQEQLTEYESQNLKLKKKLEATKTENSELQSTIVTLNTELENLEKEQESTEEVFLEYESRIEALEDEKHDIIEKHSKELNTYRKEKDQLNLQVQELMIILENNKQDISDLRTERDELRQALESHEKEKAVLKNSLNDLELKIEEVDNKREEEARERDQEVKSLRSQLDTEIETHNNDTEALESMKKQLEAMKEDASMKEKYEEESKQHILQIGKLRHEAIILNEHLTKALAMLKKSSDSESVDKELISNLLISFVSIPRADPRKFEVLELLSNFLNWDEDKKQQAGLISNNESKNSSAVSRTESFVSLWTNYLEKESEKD
B2: GRIP domain-containing protein RUD3 (Saccharomyces cerevisiae), Q12234 (parent)
chain: B1 partner
partner: B1 chain

Variants of: B1
Settings: with rud3_yeast RUD3, Q12234

| effect of a mutation on the interaction | Variant |
| --- | --- |
| decreasing interaction | T32N |

Variants of: B2
Settings: with arf1_yeast ARF1, P11076

| effect of a mutation on the interaction | Variant |
| --- | --- |
| decreasing interaction | L410A |

— IntAct's records for PubMed 15504911
